In publication PMC5548806:

What was measured:
[1] = target: CU44 HA ectodomain double mutant F88E/V91W of HA2 fused to the foldon (before the foldon cleavage) (influenza A virus H1N1 A/Thailand/CU44/2006 | not stated); assay: SEC; foldon present (pre-thrombin); Superdex 200 in 50 mM Tris (pH 8.0), 100 mM NaCl, 0.5 ml/min; Fig. 1C
[2] = target: CU44 HA ectodomain mutant F88E of HA2 fused to the foldon (pre-thrombin) (influenza A virus H1N1 A/Thailand/CU44/2006 | not stated); assay: as above
[3] = target: CU44 HA ectodomain mutant G47E of HA2, foldon removed by thrombin (influenza A virus H1N1 A/Thailand/CU44/2006); assay: SEC; […] (pH 8.0), 100 mM NaCl, 0.5 ml/min; […]
[4] = target: CU44 HA ectodomain mutant R75L of HA2, foldon removed by thrombin (influenza A virus H1N1 A/Thailand/CU44/2006); assay: SEC; […] (pH 8.0), 100 mM NaCl, 0.5 ml/min; […]
[5] = target: CU44 HA ectodomain mutant R106E of HA2, foldon removed by thrombin (influenza A virus H1N1 A/Thailand/CU44/2006); assay: SEC; […] (pH 8.0), 100 mM NaCl, 0.5 ml/min; […]
[6] = target: CU44 HA ectodomain mutant S199F of HA1, foldon removed by thrombin (influenza A virus H1N1 A/Thailand/CU44/2006); assay: SEC; […] (pH 8.0), 100 mM NaCl, 0.5 ml/min; […]
[7] = target: CU44 HA ectodomain mutant V91W of HA2 fused to the foldon (pre-thrombin) (influenza A virus H1N1 A/Thailand/CU44/2006 | not stated); assay: SEC; foldon present (pre-thrombin); Superdex 200 in 50 mM Tris (pH 8.0), 100 mM NaCl, 0.5 ml/min; Fig. 1C
[8] = target: CU44 wild-type HA ectodomain (A/Thailand/CU44/2006), foldon removed by thrombin (influenza A virus H1N1 A/Thailand/CU44/2006); assay: SEC; […] (pH 8.0), 100 mM NaCl, 0.5 ml/min; […]

CU44 HA ectodomain double mutant F88E/V91W of HA2 fused to the foldon (before the foldon cleavage)
stoichiometry N [1]: 3

CU44 HA ectodomain mutant F88E of HA2 fused to the foldon (pre-thrombin)
stoichiometry N [2]: 3

CU44 HA ectodomain mutant G47E of HA2, foldon removed by thrombin (domain or fragment)
stoichiometry N [3]: 3

CU44 HA ectodomain mutant R75L of HA2, foldon removed by thrombin (domain or fragment)
stoichiometry N [4]: 3

CU44 HA ectodomain mutant R106E of HA2, foldon removed by thrombin (domain or fragment)
stoichiometry N [5]: 3

CU44 HA ectodomain mutant S199F of HA1, foldon removed by thrombin (domain or fragment)
stoichiometry N [6]: 3

CU44 HA ectodomain mutant V91W of HA2 fused to the foldon (pre-thrombin)
stoichiometry N [7]: 3

CU44 wild-type HA ectodomain (A/Thailand/CU44/2006), foldon removed by thrombin (domain or fragment)
stoichiometry N [8]: 3
